US20220119534A1 (DRAGONFLY THERAPEUTICS, published 2022)
Positions count from the first letter of the chain named. Names may count otherwise. “And” between values parts separate entries of the source, which are not always exact repeats. Equal entries are not always repeated.

Experiments:
Human CLEC12A-His [1] = target: T1, Human CLEC12A-His (human, UniProt Q5QGZ9 65-265); test: SPR Biacore 8K 37 C; TriNKET captured on anti-hFc chip, hCLEC12A-His as analyte; 1:1 fit; after 4 wks 40 C in HST pH 6.0, n=2
T1 construct: Recombinant soluble protein made in house (Dragonfly Tx); The hCLEC12A spot of the HuProt array is written under this molecule as well; also called hCLEC12A-His; hCLEC12A; not shown: His tag
T1 sequence: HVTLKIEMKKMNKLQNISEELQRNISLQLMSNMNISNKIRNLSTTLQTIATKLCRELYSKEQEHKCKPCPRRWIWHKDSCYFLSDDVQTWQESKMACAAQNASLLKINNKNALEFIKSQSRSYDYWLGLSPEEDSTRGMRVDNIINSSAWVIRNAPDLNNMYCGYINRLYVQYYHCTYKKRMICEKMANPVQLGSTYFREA

Human CLEC12A-His [2] = target: T1, Human CLEC12A-His; test: SPR Biacore 8K 37 C; TriNKET captured on anti-hFc chip, hCLEC12A-His as analyte; 1:1 fit; after 2 wks 25 C in CST pH 7.0, n=2
[3] = target: T2, Cynomolgus CD16 (FcγRIII) (cynomolgus monkey, UniProt Q8SPW2 17-208, biotinylated); test: SPR 25C, average
T2 construct: Bought recombinant receptor; also called cFcγRIII; Cyno FcγRIII

[4] = target: T3, Human CLEC12A expressed on cells (Ba/F3-hCLEC12A, PL21, HL60) (human, UniProt Q5QGZ9 1-265); test: cell-based or functional assay
T3 sequence: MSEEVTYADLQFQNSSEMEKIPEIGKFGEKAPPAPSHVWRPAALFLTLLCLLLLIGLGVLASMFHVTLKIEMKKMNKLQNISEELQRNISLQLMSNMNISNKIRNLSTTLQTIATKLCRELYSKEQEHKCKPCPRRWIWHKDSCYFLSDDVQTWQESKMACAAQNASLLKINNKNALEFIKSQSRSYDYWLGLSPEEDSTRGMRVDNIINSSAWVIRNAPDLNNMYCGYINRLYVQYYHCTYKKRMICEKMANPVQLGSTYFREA

[5] = target: T3, Human CLEC12A expressed on cells …; test: cell-based or functional assay; remark: listed apart in the source
[6] = target: T3, Human CLEC12A expressed on cells …; test: flow cytometry on HL-60 AML cells
Human CD32b (FcγRIIb) = target: T4, Human CD32b (FcγRIIb) (human, UniProt P31994 46-217, limits assumed, biotinylated); test: SPR 25C, biotinylated CD32b captured
T4 construct: Bought recombinant receptor; also called hFcγRIIb; CD32b (FcγR2b)
T4 sequence (looked up): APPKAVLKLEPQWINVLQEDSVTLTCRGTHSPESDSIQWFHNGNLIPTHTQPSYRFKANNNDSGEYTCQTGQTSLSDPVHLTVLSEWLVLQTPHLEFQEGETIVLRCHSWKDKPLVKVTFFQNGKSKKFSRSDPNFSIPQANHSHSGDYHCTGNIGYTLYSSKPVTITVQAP

[7] = target: T5, Human CLEC12A-His (recombinant, K244 WT) (human, UniProt Q5QGZ9 65-265); test: SPR, two-state fit (ka1); control sample
T5 construct: Made in house (Dragonfly Tx); also called hCLEC12A; hCLEC12A-His; not shown: His tag
T5 sequence: T1 sequence

[8] = target: T5, Human CLEC12A-His (recombinant, K244 WT); test: SPR, two-state fit; after pH 5.0, 40C, 2 wks
Human FcRn = target: T6, Human FcRn (human, UniProt P55899 24-297; P61769 21-119); test: SPR 25C, pH 6.0, FcRn on chip, steady state fit
T6 construct: Bought recombinant receptor; also called hFcRn

[9] = target: T5, Human CLEC12A-His (recombinant, K244 WT); test: SPR, two-state fit (kd1); after pH 5.0, 40C, 2 wks
[10] = target: T7, human CLEC12A on cells (HL60, PL21, Ba/F3-hCLEC12A) (human, UniProt Q5QGZ9 1-265); test: flow cytometry, Ba/F3-hCLEC12A cells
T7 construct: Endogenous on the AML lines HL60 and PL21; brought into mouse Ba/F3 cells by retroviral transduction; The cell line stands under assay; also called CLL-1
T7 sequence: T3 sequence

Human CLEC12A-His [11] = target: T8, Human CLEC12A-His (human, UniProt Q5QGZ9 65-265); test: SPR; control sample (HST pH 6.0 study)
T8 construct: Recombinant soluble protein made in house; also called hCLEC12A-His; hCLEC12A; not shown: His tag
T8 sequence: T1 sequence

mFc-hNKG2D [12] = target: T9, mFc-hNKG2D (human, UniProt P26718 73-216); test: SPR; control sample (HST pH 6.0 study)
T9 construct: extracellular domain; Recombinant mFc-tagged NKG2D dimer, made in house; also called human NKG2D; not shown: mouse Fc tag
T9 sequence (looked up): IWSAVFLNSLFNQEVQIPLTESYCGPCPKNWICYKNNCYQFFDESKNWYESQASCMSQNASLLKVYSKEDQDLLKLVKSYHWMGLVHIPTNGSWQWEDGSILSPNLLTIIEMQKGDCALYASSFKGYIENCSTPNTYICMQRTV

Human CD16a V158 = target: T10, Human CD16a V158 (human, UniProt P08637 17-208, biotinylated); test: SPR; control sample (HST pH 6.0 study)
T10 construct: Bought recombinant receptor; also called hCD16a (V158); hFcγRIIIa V158

mFc-hNKG2D [13] = target: T9, mFc-hNKG2D; test: SPR, 37 C, mFc-hNKG2D captured, kinetic fit

T10 sequence (P08637 17-208 F176V limits assumed): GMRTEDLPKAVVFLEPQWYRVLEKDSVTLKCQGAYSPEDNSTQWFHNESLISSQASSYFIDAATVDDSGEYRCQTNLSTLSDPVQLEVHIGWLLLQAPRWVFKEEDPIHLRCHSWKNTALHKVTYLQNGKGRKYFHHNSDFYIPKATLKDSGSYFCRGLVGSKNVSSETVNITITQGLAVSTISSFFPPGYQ
T2 sequence (Q8SPW2 17-208 limits assumed): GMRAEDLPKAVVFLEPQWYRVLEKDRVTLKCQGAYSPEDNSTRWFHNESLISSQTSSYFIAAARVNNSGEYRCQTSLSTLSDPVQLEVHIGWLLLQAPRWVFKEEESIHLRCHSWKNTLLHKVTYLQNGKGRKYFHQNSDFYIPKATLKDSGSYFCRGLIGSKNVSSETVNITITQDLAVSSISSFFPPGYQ
T6 sequence (P55899 24-297 limits assumed, chain 1 of 2): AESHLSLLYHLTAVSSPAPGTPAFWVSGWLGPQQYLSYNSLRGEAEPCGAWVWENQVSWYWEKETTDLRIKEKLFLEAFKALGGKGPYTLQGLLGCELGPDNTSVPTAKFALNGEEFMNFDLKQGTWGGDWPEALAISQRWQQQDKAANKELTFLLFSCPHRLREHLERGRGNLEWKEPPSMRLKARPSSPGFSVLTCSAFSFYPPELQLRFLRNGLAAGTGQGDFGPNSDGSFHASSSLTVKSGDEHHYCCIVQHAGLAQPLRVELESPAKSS
T6 sequence (P61769 21-119 limits assumed, chain 2 of 2): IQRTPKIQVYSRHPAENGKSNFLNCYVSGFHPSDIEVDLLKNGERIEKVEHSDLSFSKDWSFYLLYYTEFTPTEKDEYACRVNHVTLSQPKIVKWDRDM

B1: F3'-1602 TriNKET (bispecific antibody, human IgG1, kappa)
chain: QLQLQESGPGLVKPSETLSLTCTVSGFSLTNYGLHWIRQPPGKCLEWIGVIWSGGKTDYNPSLKSRVTISKDTSKNQFSLKLSSVQAADTAVYYCAKYDYDDSLDYWGQGTLVTVSSGGGGSGGGGSGGGGSGGGGSDIQMTQSPSSLSASVGDRVTITCHASQNINFWLSWYQQKPGKAPKLLIYEASNLHTGVPSRFSGSGSGTRFTLTISSLQPEDIATYYCQQSHSYPLTFGCGTKLEIKGSDKTHTCPPCPAPELLGGPSVFLFPPKPKDTLMISRTPEVTCVVVDVSHEDPEVKFNWYVDGVEVHNAKTKPREEQYNSTYRVVSVLTVLHQDWLNGKEYKCKVSNKALPAPIEKTISKAKGQPREPRVYTLPPCRDELTKNQVSLTCLVKGFYPSDIAVEWESNGQPENNYKTTPPVLVSDGSFTLYSKLTVDKSRWQQGNVFSCSVMHEALHNHYTQKSLSLSPG
heavy: EVQLVESGGGLVKPGGSLRLSCAASGFTFSSYSMNWVRQAPGKGLEWVSSISSSSSYIYYADSVKGRFTISRDNAKNSLYLQMNSLRAEDTAVYYCARGAPIGAAAGWFDPWGQGTLVTVSSASTKGPSVFPLAPSSKSTSGGTAALGCLVKDYFPEPVTVSWNSGALTSGVHTFPAVLQSSGLYSLSSVVTVPSSSLGTQTYICNVNHKPSNTKVDKKVEPKSCDKTHTCPPCPAPELLGGPSVFLFPPKPKDTLMISRTPEVTCVVVDVSHEDPEVKFNWYVDGVEVHNAKTKPREEQYNSTYRVVSVLTVLHQDWLNGKEYKCKVSNKALPAPIEKTISKAKGQPREPQVCTLPPSRDELTENQVSLTCLVKGFYPSDIAVEWESNGQPENNYKTTPPVLDSDGSFFLYSWLTVDKSRWQQGNVFSCSVMHEALHNHYTQKSLSLSPG
light: DIQMTQSPSSVSASVGDRVTITCRASQGISSWLAWYQQKPGKAPKLLIYAASSLQSGVPSRFSGSGSGTDFTLTISSLQPEDFATYYCQQGVSFPRTFGGGTKVEIKRTVAAPSVFIFPPSDEQLKSGTASVVCLLNNFYPREAKVQWKVDNALQSGNSQESVTEQDSKDSTYSLSSTLTLSKADYEKHKVYACEVTHQGLSSPVTKSFNRGEC
notes: Trispecific F3' format: CLEC12A scFv-Fc paired with NKG2D Fab-Fc; Stressed and control samples of the stability studies are the same molecule; also called AB0237
B1 showed a Kd (Human CLEC12A-His [1]) of 1.69 nM, a koff (Human CLEC12A-His [1]) of 0.00214 s⁻¹ and a kon (Human CLEC12A-His [1]) of 1.24e+06 M⁻¹ s⁻¹. It also gave a Kd (Human CLEC12A-His [2]) of 0.93 nM, a koff (Human CLEC12A-His [2]) of 0.000765 s⁻¹ and a kon (Human CLEC12A-His [2]) of 824000 M⁻¹ s⁻¹.

B2: AB0089 TriNKET (bispecific antibody, human IgG1, kappa)
chain: B1 chain with S53V, K56A, K71V, Y98G, D101G, S103T, R207D, I220F
heavy: B1 heavy
light: B1 light
notes: F3' format heterodimer of three chains; human IgG1 Fc with EW-RVT and Y349C/S354C mutations; also called AB0089 Lot AB0089-002; CLEC12A TriNKET AB0089
B2 was tested, and the Kd [3] was 349 nM, the “EC50, rested NK cell lysis of PL21 cells (mean of six donors)” value [4] was 0.25 nM and the “% Max, ADCP activity of M0 macrophages against PL21 cells” value [5] was 15%. For the same binder, the “EC50, ADCP activity of M0 macrophages against PL21 cells” value [5] was 0.03 nM, the EC50 [6] was 0.74 nM and the Kd (Human CD32b (FcγRIIb)) was 7100 nM and 5300 nM and 7400 nM. For the same binder, the kon [7] was 1.01e+07 M⁻¹ s⁻¹, the Kd [8] was 1 nM and the Kd (Human FcRn) was 1100 nM. For the same binder, the koff [9] was 0.0427 s⁻¹.

B3: AB0192 TriNKET (other)
chain: EVQLVESGGGVVQPGGSLRLSCAASGFTFNAFGMHWVRQAPGKCLEWVAFISSGSTSIYYANTVKGRFTISRDNSKNTLYLQMNSLRAEDTAVYYCARDGYPTGGAMDYWGQGTSVTVSSGGGGSGGGGSGGGGSGGGGSDIQMTQSPSSLSASVGDRVTITCKASQDIYNYLSWFQQKPGKAPKPLIYRANILVSGVPSRFSGSGSGQDYTFTISSLQPEDIATYYCLQFDAFPFTFGCGTKLEIKGSDKTHTCPPCPAPELLGGPSVFLFPPKPKDTLMISRTPEVTCVVVDVSHEDPEVKFNWYVDGVEVHNAKTKPREEQYNSTYRVVSVLTVLHQDWLNGKEYKCKVSNKALPAPIEKTISKAKGQPREPRVYTLPPCRDELTKNQVSLTCLVKGFYPSDIAVEWESNGQPENNYKTTPPVLVSDGSFTLYSKLTVDKSRWQQGNVFSCSVMHEALHNHYTQKSLSLSPG
heavy: B1 heavy
light: B1 light
notes: the condition stands under assay; also called AB0192 Lot AB0192-005
Binder B3 has an EC50 [10] of 0.91 nM, a Kd (Human CLEC12A-His [11]) of 1.81 nM and a koff (Human CLEC12A-His [11]) of 0.0014 s⁻¹. The kon (Human CLEC12A-His [11]) was 776000 M⁻¹ s⁻¹, the Kd (mFc-hNKG2D [12]) was 588 nM and the koff (mFc-hNKG2D [12]) was 0.122 s⁻¹. It also gave a kon (mFc-hNKG2D [12]) of 208000 M⁻¹ s⁻¹, a Kd (Human CD16a V158) of 171 nM and a koff (Human CD16a V158) of 0.0199 s⁻¹. The kon (Human CD16a V158) was 117000 M⁻¹ s⁻¹ and the Kd (mFc-hNKG2D [13]) was 770 nM and 778 nM and 790 nM.
